Measurements reported in publication PMC10583602.

Experiments:
[1] = target: TnsC with the apical loop E69-D75 deleted (Vibrio cholerae); assay: SEC
[2] = target: TnsC(ΔA106–A113) (Vibrio cholerae); assay: SEC
[3] = target: Vibrio cholerae TnsC (VchTnsC), full length, tag cleaved (Vibrio cholerae); assay: SEC
[4] = target: Vibrio cholerae TnsC (VchTnsC), full length, tag cleaved (Vibrio cholerae); assay: cryo-EM structure

TnsC with the apical loop E69-D75 deleted (natural protein)
stoichiometry N [1]: 7

TnsC(ΔA106–A113) (natural protein)
stoichiometry N [2]: 7

Vibrio cholerae TnsC (VchTnsC), full length, tag cleaved (natural protein)
stoichiometry N [3]: 7
stoichiometry N [4]: 7
